Target: recombinant T2 domain of xNAP1 (Xenopus nucleosome assembly protein), residues 38-282, histidine tagged (Xenopus laevis)
Test: AUC

Work on “recombinant T2 domain of xNAP1 (Xenopus nucleosome assembly protein), residues 38-282, histidine tagged (domain or fragment)” yielded a stoichiometry N of 12 to 16 subunits.
